In the supplement of paper PMC10567573:

B1: ZNF263 (parent)
chain: CSECGESFSRSSRLMSHQRTHTG

Variants of: B1
Assay: protein stability index of a GFP-peptide fusion (GPS, HEK-293T) (PSI 1-6); higher = more stable
Settings: c terminus: native
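Also: lentivirally expressed fusions sorted by FACS into six bins by GFP to DsRed ratio, PSI derived from sequencing read proportions per bin multiplied by bin number.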

Variant	protein stability index
CSECGESFSRSSRLMSHQRTHTN	4.85
CSECGESFSRSSRLMSHQRTHTK	4.89
CSECGESFSRSSRLMSHQRTHTI	4.41
CSECGESFSRSSRLMSHQRTHTF	3.74
CSECGESFSRSSRLMSHQRTHTC	3.33
CSECGESFSRSSRLMSHQRTHTA	2.97
CSECGESFSRSSRLMSHQRTHTM	4.34
CSECGESFSRSSRLMSHQRTHTH	3.59
CSECGESFSRSSRLMSHQRTHTE	4.44
CSECGESFSRSSRLMSHQRTHTL	4.69
CSECGESFSRSSRPMSHQRTHTG	1.67
CSECGESFSRSSRAMSHQRTHTG	2.39
CSECGESFSRSSRHMSHQRTHTG	1.55
CSECGESFSRSSRYMSHQRTHTG	2.98
CSECGESFSRSSRGMSHQRTHTG	1.62
CSECGESFSRSSRMMSHQRTHTG	1.87
CSECGESFSRSSRVMSHQRTHTG	1.45
CSECGESFSRSSRTMSHQRTHTG	2.05
CSECGESFSRSSRQMSHQRTHTG	1.32
CSECGESFSRSSRWMSHQRTHTG	1.96
CSECGESFSRSSRFMSHQRTHTG	2.43
CSECGESFSRSSRNMSHQRTHTG	2.12
CSECGESFSRSSRDMSHQRTHTG	2.74
CSECGESFSRSSREMSHQRTHTG	2.35
CSECGESFSRSSRLMRHQRTHTG	3.69

Variant	protein stability index
CSECGESFSRSSRLMYHQRTHTG	1.93
CSECGESFSRSSRLMEHQRTHTG	4.89
CSECGESFSRSSRLMMHQRTHTG	4.14
CSECGESFSRSSRLMIHQRTHTG	2.88
CSECGESFSRSSRLMAHQRTHTG	3.8
CSECGESFSRSSRLMDHQRTHTG	4.8
CSECGESFSRSSRLMTHQRTHTG	3.34
CSECGESFSRSSRLMLHQRTHTG	3.83
CSECGESFSRSSRLMNHQRTHTG	2.14
CSECGESFSRSSRLMWHQRTHTG	1.83
CSECGESFSRSSRLMFHQRTHTG	2.28
CSECGESFSRSSRLMVHQRTHTG	3.49
CSECGESFSRSSRLMHHQRTHTG	2.64
CSECGESFSRSSRLMCHQRTHTG	3.1
CSECGESFSRSSRLMSKQRTHTG	2.76
CSECGESFSRSSRLMSEQRTHTG	2.38
CSECGESFSRSSRLMSNQRTHTG	1.57
CSECGESFSRSSRLMSQQRTHTG	2.04
CSECGESFSRSSRLMSAQRTHTG	1.44
CSECGESFSRSSRLMSWQRTHTG	3.17
CSECGESFSRSSRLMSIQRTHTG	3.2
CSECGESFSRSSRLMSDQRTHTG	2.52
CSECGESFSRSSRLMSLQRTHTG	1.38
CSECGESFSRSSRLMSPQRTHTG	1.11
CSECGESFSRSSRLMSYQRTHTG	1.76

Variant	protein stability index
CSECGESFSRSSRLMSFQRTHTG	2.73
CSECGESFSRSSRLMSCQRTHTG	2.42
CSECGESFSRSSRLMSTQRTHTG	1.46
CSECGESFSRSSRLMSSQRTHTG	1.51
CSECGESFSRSSRLMSHQRTCTG	2.72
CSECGESFSRSSRLMSHQRTGTG	3.01
CSECGESFSRSSRLMSHQRTWTG	1.87
CSECGESFSRSSRLMSHQRTNTG	2.4
CSECGESFSRSSRLMSHQRTKTG	1.78
CSECGESFSRSSRLMSHQRTFTG	2.47
CSECGESFSRSSRLMSHQRTETG	2.15
CSECGESFSRSSRLMSHQRTSTG	2.74
CSECGESFSRSSRLMSHQRTLTG	2.52
CSECGESFSRSSRLMSHQRTDTG	3.31
CSECGESFSRSSRLMSHQRTMTG	1.45
CSECGESFSRSSRLMSHQRTYTG	2.64
CSECGESFSRSSRLMSHQRTTTG	1.6
CSECGESFSRSHRLMSHQRTHTG	2.66
CSECGESFSRSVRLMSHQRTHTG	1.86
CSECGESFSRSMRLMSHQRTHTG	2.58
CSECGESFSRSDRLMSHQRTHTG	4.42
CSECGESFSRSIRLMSHQRTHTG	2.4
CSECGESFSRSCRLMSHQRTHTG	3.76
CSECGESFSRSTRLMSHQRTHTG	1.72
CSECGESFSRSLRLMSHQRTHTG	2.01

Variant	protein stability index
CSECGESFSRSGRLMSHQRTHTG	1.91
CSECGESFSRSARLMSHQRTHTG	2.13
CSECGESFSRSRRLMSHQRTHTG	2.23
CSECGESFSRSFRLMSHQRTHTG	1.86
CSECGESFSRSPRLMSHQRTHTG	2.06
CSECGESFSRSYRLMSHQRTHTG	2.65
CSECGESFSRSKRLMSHQRTHTG	1.99
CSECGESFSRSQRLMSHQRTHTG	2.38
CSECGESFSRSWRLMSHQRTHTG	2.13
CSECGESFSRSNRLMSHQRTHTG	2.52
CSECGESFSRVSRLMSHQRTHTG	4.71
CSECGESFSRTSRLMSHQRTHTG	2.54
CSECGESFSRRSRLMSHQRTHTG	2.31
CSECGESFSRYSRLMSHQRTHTG	3.67
CSECGESFSRSSRLMSHQTTHTG	3.76
CSECGESFSRSSRLMSHQLTHTG	3.49
CSECGESFSRSSRLMSHQWTHTG	3.17
CSECGESFSRSSRLMSHQMTHTG	3.43
CSECGESFSRSSRLMSHQFTHTG	3.55
CSECGESFSRSSRLMSHQCTHTG	5
CSECGESFSRSSRLMSHQNTHTG	4.11
CSECGESFSRSSRLMSHQKTHTG	5.13
CSECGESFSRSSRLMSHQITHTG	2.58
CSECGESFSRSSRLMSHQHTHTG	4.51
CSECGESFSRSSRLMSHQETHTG	3.78

Variant	protein stability index
CSECGESFSRSSRLMSHQYTHTG	3.63
CSECGESFSRSSRLMSHQPTHTG	2.44
CSECGESFSRSSRLMSHQSTHTG	3.46
CSECGESFSRSSRLMSHQQTHTG	3.63
CSECGESFSRSSRLMSHQDTHTG	4.39
CSECGESFSRSSRLMSHQATHTG	4.1
CSECGESFSRSSRLMSHQVTHTG	2.73
CSECGESFSRSSPLMSHQRTHTG	2.43
CSECGESFSRSSCLMSHQRTHTG	4.52
CSECGESFSRSSSLMSHQRTHTG	4.84
CSECGESFSRSSLLMSHQRTHTG	4.84
CSECGESFSRSSKLMSHQRTHTG	4.19
CSECGESFSRSSILMSHQRTHTG	3.96
CSECGESFSRSSELMSHQRTHTG	5.6
CSECGESFSRSSYLMSHQRTHTG	3.6
CSECGESFSRSSMLMSHQRTHTG	4.03
CSECGESFSRSSDLMSHQRTHTG	5.63
CSECGESFSRSSHLMSHQRTHTG	4.79
CSECGESFSRSSTLMSHQRTHTG	4.34
CSECGESFSRSSQLMSHQRTHTG	4.66
CSECGESFSRSSVLMSHQRTHTG	4.14
CSECGESFSRSSFLMSHQRTHTG	3.48
CSECGESFSRSSGLMSHQRTHTG	3.3
CSECGESFSRSSNLMSHQRTHTG	4.26
CSECGESFSRSSALMSHQRTHTG	4.91

Variant	protein stability index
CSECGESFSRSSWLMSHQRTHTG	2.56
CSECGESFSRSSRLMSHQRTHAG	2.03
CSECGESFSRSSRLMSHQRTHQG	2.43
CSECGESFSRSSRLMSHQRTHWG	2.25
CSECGESFSRSSRLMSHQRTHEG	3.76
CSECGESFSRSSRLMSHQRTHNG	2.29
CSECGESFSRSSRLMSHQRTHFG	3.75
CSECGESFSRSSRLMSHQRTHLG	4.2
CSECGESFSRSSRLMSHQRTHSG	2.23
CSECGESFSRSSRLMSHQRTHYG	2.25
CSECGESFSRSSRLMSHQRTHDG	4.27
CSECGESFSRSSRLMSHQRTHMG	3.83
CSECGESFSRSSRLMSHQRTHCG	2.08
CSECGESFSRSSRLMSHQRTHVG	3.03
CSECGESFSRSSRLMSHQRTHIG	2.95
CSECGESFSRSSRLMSHCRTHTG	2.5
CSECGESFSRSSRLMSHSRTHTG	2.13
CSECGESFSRSSRLMSHDRTHTG	2.58
CSECGESFSRSSRLMSHLRTHTG	3.02
CSECGESFSRSSRLMSHGRTHTG	2.49
CSECGESFSRSSRLMSHWRTHTG	2.77
CSECGESFSRSSRLMSHKRTHTG	2.22
CSECGESFSRSSRLMSHYRTHTG	2.39
CSECGESFSRSSRLMSHFRTHTG	2.38
CSECGESFSRSSRLMSHRRTHTG	1.89

Variant	protein stability index
CSECGESFSRSSRLMSHTRTHTG	2.24
CSECGESFSRSSRLMSHPRTHTG	2.22
CSECGESFSRSSRLMSHHRTHTG	2.57
CSECGESFSRSSRLMSHNRTHTG	2.16
CSECGESFSRSSRLMSHIRTHTG	3.21
CSECGESFSRSSRLMSHERTHTG	2.76
CSECGESFSRSSRLMSHARTHTG	2.48
CSECGESFSRSSRLMSHMRTHTG	4.32
CSECGESFSRSSRLYSHQRTHTG	2.83
CSECGESFSRSSRLDSHQRTHTG	3.48
CSECGESFSRSSRLNSHQRTHTG	2.22
CSECGESFSRSSRLHSHQRTHTG	3.24
CSECGESFSRSSRLISHQRTHTG	3.54
CSECGESFSRSSRLFSHQRTHTG	3.2
CSECGESFSRSSRLLSHQRTHTG	3.13
CSECGESFSRSSRLCSHQRTHTG	2.75
CSECGESFSRSSRLQSHQRTHTG	3.51
CSECGESFSRSSRLWSHQRTHTG	1.85
CSECGESFSRSSRLPSHQRTHTG	1.72
CSECGESFSRSSRLRSHQRTHTG	3.03
CSECGESFSRSSRLASHQRTHTG	3.54
CSECGESFSRSSRLESHQRTHTG	3.72
CSECGESFSRSSRLGSHQRTHTG	1.98
CSECGESFSRSSRLVSHQRTHTG	2.54
CSECGESFSRSSRLKSHQRTHTG	3.97

Variant	protein stability index
CSECGESFSRSSRLSSHQRTHTG	2.19
CSECGESFSRSSRLTSHQRTHTG	2.54
CSECGESFSRSSRLMSHQRCHTG	2.35
CSECGESFSRSSRLMSHQRAHTG	3.7
CSECGESFSRSSRLMSHQREHTG	2.45
CSECGESFSRSSRLMSHQRYHTG	2.08
CSECGESFSRSSRLMSHQRMHTG	1.95
CSECGESFSRSSRLMSHQRVHTG	2.9
CSECGESFSRSSRLMSHQRHHTG	3.72
CSECGESFSRSSRLMSHQRSHTG	2.44
CSECGESFSRSSRLMSHQRDHTG	3.75
CSECGESFSRSSRLMSHQRLHTG	3.21
CSECGESFSRSSRLMSHQRKHTG	3.72
CSECGESFSRSSRLMSHQRGHTG	2.96
CSECGESFSRSSRLMSHQRWHTG	1.92
CSECGESFSRSSRLMSHQRIHTG	4.43
CSECGESFSRSSRLMSHQRQHTG	3.26
CSECGESFSRSSRLMSHQRNHTG	1.93
CSECGESFSRSSRLMSHQRFHTG	2.48
